# What was measured:
# [1] = tested on: Gal4(1-147) (Saccharomyces cerevisiae); assay: ensemble FRET titration; conditions: FRET (Gal4): 130 mM NaCl, 10 mM Tris-HCl pH 8, 0.01% Tween 20, 10% glycerol, 0.5 nM substrate, PIFE (LexA): 130 mM NaCl, 10 mM Tris pH 8, 10% glycerol, 0.005% …
# LexA = assay: PIFE titration; conditions: FRET (Gal4): 130 mM NaCl, 10 mM Tris-HCl pH 8, 0.01% Tween 20, 10% glycerol, 0.5 nM substrate, PIFE (LexA): 130 mM NaCl, 10 mM Tris pH 8, 10% glycerol, 0.005% …
substance,measurement,setting,value
601-Gal4-S hexasome (H2A-H2B proximal to Gal4 site),K half,"[1]; hexasome, dimer-proximal site, smFRET kon 0.0052 s-1 nM-1, koff 0.37 s-1",47 nM
601-Gal4-S nucleosome,K half,"[1]; nucleosome, smFRET kon 0.011 s-1 nM-1, koff 0.32 s-1",19.6 nM
601-LexA-W hexasome (H2A-H2B distal LexA site),K half,"LexA; hexasome, dimer-distal site",0.25 nM
DNA-LexA,K half,"LexA; naked DNA, Cy5-aminoC6-dT internal in reverse strand",0.3 nM

# Reference: article PMC6582347
